Publication PMC10016618 (Nature cell biology, 2021)

What was measured:
[1] = target: T1, Kif7-DM (1-543aa) (human, UniProt Q2M1P5 1-543); experiment: BLI
T1 sequence (looked up): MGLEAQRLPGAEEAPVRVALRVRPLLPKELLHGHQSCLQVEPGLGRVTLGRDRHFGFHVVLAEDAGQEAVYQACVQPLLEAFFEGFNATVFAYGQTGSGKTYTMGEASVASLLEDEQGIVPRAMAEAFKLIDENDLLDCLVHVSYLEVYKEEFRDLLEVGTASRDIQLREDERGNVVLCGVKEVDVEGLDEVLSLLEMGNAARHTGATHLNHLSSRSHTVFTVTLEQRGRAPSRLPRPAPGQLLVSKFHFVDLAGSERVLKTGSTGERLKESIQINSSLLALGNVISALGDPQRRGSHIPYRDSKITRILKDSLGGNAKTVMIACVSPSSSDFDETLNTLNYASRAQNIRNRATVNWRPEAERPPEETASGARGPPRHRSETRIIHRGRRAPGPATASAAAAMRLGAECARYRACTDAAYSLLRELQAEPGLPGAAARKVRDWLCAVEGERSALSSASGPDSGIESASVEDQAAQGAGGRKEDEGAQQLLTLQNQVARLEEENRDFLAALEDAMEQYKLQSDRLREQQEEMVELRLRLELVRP

[2] = target: T2, Kif7-DM-GFP (1-543aa) (human, UniProt Q2M1P5 1-543); experiment: TIRF microscopy, recruitment to immobilised microtubules
T2 sequence (looked up): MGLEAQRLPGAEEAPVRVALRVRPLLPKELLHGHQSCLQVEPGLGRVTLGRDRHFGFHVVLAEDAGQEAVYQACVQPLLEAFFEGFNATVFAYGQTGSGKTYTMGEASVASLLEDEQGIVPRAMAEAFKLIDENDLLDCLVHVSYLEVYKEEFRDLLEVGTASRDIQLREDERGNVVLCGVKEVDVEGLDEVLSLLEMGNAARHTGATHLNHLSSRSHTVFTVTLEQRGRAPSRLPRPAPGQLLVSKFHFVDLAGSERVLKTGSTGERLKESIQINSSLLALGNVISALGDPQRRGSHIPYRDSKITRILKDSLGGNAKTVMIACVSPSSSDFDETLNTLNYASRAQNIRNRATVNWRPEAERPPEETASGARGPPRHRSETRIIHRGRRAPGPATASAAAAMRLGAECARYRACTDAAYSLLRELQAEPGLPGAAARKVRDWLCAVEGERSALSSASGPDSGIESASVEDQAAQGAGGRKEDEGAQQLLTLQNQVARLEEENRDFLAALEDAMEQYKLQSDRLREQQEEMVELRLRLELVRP

[3] = target: T3, Kif7-DM(E502A)-GFP (human, UniProt Q2M1P5 1-543, E502A); experiment: as above
T3 sequence (looked up): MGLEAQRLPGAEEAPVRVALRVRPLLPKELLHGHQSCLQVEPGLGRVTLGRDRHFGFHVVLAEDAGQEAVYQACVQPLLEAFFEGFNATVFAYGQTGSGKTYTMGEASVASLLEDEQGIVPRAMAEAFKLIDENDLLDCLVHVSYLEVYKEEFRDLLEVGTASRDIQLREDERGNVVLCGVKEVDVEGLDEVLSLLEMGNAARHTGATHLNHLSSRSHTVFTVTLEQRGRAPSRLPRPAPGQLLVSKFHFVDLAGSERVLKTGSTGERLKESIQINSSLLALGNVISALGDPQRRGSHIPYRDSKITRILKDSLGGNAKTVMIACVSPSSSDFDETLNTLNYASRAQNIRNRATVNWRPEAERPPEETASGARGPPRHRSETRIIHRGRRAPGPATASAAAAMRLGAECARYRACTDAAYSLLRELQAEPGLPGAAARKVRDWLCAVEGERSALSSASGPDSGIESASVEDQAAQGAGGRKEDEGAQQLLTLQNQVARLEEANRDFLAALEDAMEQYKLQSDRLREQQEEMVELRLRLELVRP

B1: Gli2-ZF-SNAP (domain or fragment, human, UniProt P10070 418-604, looked up)
chain: KEDLDRDDCKQEAEVVIYETNCHWEDCTKEYDTQEQLVHHINNEHIHGEKKEFVCRWQACTREQKPFKAQYMLVVHMRRHTGEKPHKCTFEGCSKAYSRLENLKTHLRSHTGEKPYVCEHEGCNKAFSNASDRAKHQNRTHSNEKPYICKIPGCTKRYTDPSSLRKHVKTVHGPDAHVTKKQRNDVH
modifications: Alexa-647 label (TIRFM assays)
Kd [1]: 99 ± 23 nM
fold enrichment of Gli2-ZF on microtubules over no kinesin control [2]: ~9 fold
binding result [3]: binds
